Experimental findings from article doi:10.1101/2020.08.14.250746 (bioRxiv, 2020) are described below.

The target in the experiment is Untagged human calmodulin (recombinant) (human, UniProt P0DP23 1-149). Briefly: pull-down.

Regarding FGKTKIFFRAGQVAYLEKLRADKLRAACIRIQKTIRGWLLRKRYLCMQR (domain or fragment) [GFP-myoVa-IQ1 (aa742-791)], the binding result is recorded as “binds”.
